According to publication PMC10353453 (Molecular cell, 2022):
Positions count from the first letter of the chain named. Names may count otherwise.

B1: human NADK2 (aa 61–442 with an N terminus His-tag) (enzyme, UniProt Q4G0N4 61-442, looked up)
chain: RADGGFRPSRVVVVAKTTRYEFEQQRYRYAELSEEDLKQLLALKGSSYSGLLERHHIHTKNVEHIIDSLRNEGIEVRLVKRREYDEETVRWADAVIAAGGDGTMLLAASKVLDRLKPVIGVNTDPERSEGHLCLPVRYTHSFPEALQKFYRGEFRWLWRQRIRLYLEGTGINPVPVDLHEQQLSLNQHNRALNIERAHDERSEASGPQLLPVRALNEVFIGESLSSRASYYEISVDDGPWEKQKSSGLNLCTGTGSKAWSFNINRVATQAVEDVLNIAKRQGNLSLPLNRELVEKVTNEYNESLLYSPEEPKILFSIREPIANRVFSSSRQRCFSSKVCVRSRCWDACMVVDGGTSFEFNDGAIASMMINKEDELRTVLLEQ
B2: His-NADK2^Δ231–266 (aa 61–442) (enzyme, human, UniProt Q4G0N4 61-442, looked up)
chain: RADGGFRPSRVVVVAKTTRYEFEQQRYRYAELSEEDLKQLLALKGSSYSGLLERHHIHTKNVEHIIDSLRNEGIEVRLVKRREYDEETVRWADAVIAAGGDGTMLLAASKVLDRLKPVIGVNTDPERSEGHLCLPVRYTHSFPEALQKFYRGEFRWLWRQRIRLYLEGTGPQLLPVRALNEVFIGESLSSRASYYEISVDDGPWEKQKSSGLNLCTGTGSKAWSFNINRVATQAVEDVLNIAKRQGNLSLPLNRELVEKVTNEYNESLLYSPEEPKILFSIREPIANRVFSSSRQRCFSSKVCVRSRCWDACMVVDGGTSFEFNDGAIASMMINKEDELRTVLLEQ
B3: His-NADK2^V334R (enzyme, human, UniProt Q4G0N4 61-442, looked up)
chain: B1 chain with V274R
B4: His-NADK2^R378Q (enzyme, human, UniProt Q4G0N4 61-442, looked up)
chain: B1 chain with R318Q
B5: His-NADK2^S188A (enzyme, human, UniProt Q4G0N4 61-442, looked up)
chain: B1 chain with S128A
B6: His-NADK2^K76Q (enzyme, human, UniProt Q4G0N4 61-442, looked up)
chain: B1 chain with K16Q
B7: His-NADK2^K304Q (enzyme, human, UniProt Q4G0N4 61-442, looked up)
chain: B1 chain with K244Q
B8: His-NADK2^Δ78–114 (aa 61–442) (enzyme, human, UniProt Q4G0N4 61-442, looked up)
chain: RADGGFRPSRVVVVAKTHHIHTKNVEHIIDSLRNEGIEVRLVKRREYDEETVRWADAVIAAGGDGTMLLAASKVLDRLKPVIGVNTDPERSEGHLCLPVRYTHSFPEALQKFYRGEFRWLWRQRIRLYLEGTGINPVPVDLHEQQLSLNQHNRALNIERAHDERSEASGPQLLPVRALNEVFIGESLSSRASYYEISVDDGPWEKQKSSGLNLCTGTGSKAWSFNINRVATQAVEDVLNIAKRQGNLSLPLNRELVEKVTNEYNESLLYSPEEPKILFSIREPIANRVFSSSRQRCFSSKVCVRSRCWDACMVVDGGTSFEFNDGAIASMMINKEDELRTVLLEQ
B9: NADK2 expressed in HEK293E cells (full-length human NADK2 cDNA with a C-terminal FLAG-tag) (enzyme, UniProt Q4G0N4 63-442, looked up)
chain: DGGFRPSRVVVVAKTTRYEFEQQRYRYAELSEEDLKQLLALKGSSYSGLLERHHIHTKNVEHIIDSLRNEGIEVRLVKRREYDEETVRWADAVIAAGGDGTMLLAASKVLDRLKPVIGVNTDPERSEGHLCLPVRYTHSFPEALQKFYRGEFRWLWRQRIRLYLEGTGINPVPVDLHEQQLSLNQHNRALNIERAHDERSEASGPQLLPVRALNEVFIGESLSSRASYYEISVDDGPWEKQKSSGLNLCTGTGSKAWSFNINRVATQAVEDVLNIAKRQGNLSLPLNRELVEKVTNEYNESLLYSPEEPKILFSIREPIANRVFSSSRQRCFSSKVCVRSRCWDACMVVDGGTSFEFNDGAIASMMINKEDELRTVLLEQ

Target: the molecule itself
Experiment: SAXS

Stoichiometry N, 2:
B1

Target: the molecule itself
Experiment: mass photometry

Stoichiometry N, 2:
B2, B3, B4, B5, B6, B7, B8

Target: the molecule itself
Experiment: cross-linking

Stoichiometry N, 2:
B9
